Drawing on paper PMC5738273 (Journal of molecular biology, 2017), this text covers Kd for 2 proteins.

Data set [1] concerns the molecule itself. The data set is described as follows: MST.
The data set “ITC” deals with the molecule itself. As to the kind of experiment: ITC. (In general: In ITC the heat of successive injections is recorded.)
Data set [2] concerns the molecule itself. The data set is described as follows: MST. The source holds these as a separate data set.
Data set [3] deals with the molecule itself. The data set is described as follows: MST. The source holds these as a separate data set.
Data set [4] concerns the molecule itself. As to the kind of experiment: MST. The source holds these as a separate data set.

B1: wild-type HdeA (natural protein, Escherichia coli, UniProt P0AES9 22-110, looked up)
chain: ADAQKAADNKKPVNSWTCEDFLAVDESFQPTAVGFAEALNNKDKPEDAVLDVQGIATVTPAIVQACTQDKQANFKDKVKGEWDKIKKDM
Usually Kd stands for the constant that tells how readily two partners part at equilibrium. A high value points to lower affinity. For the protein B1, the Kd in the data set “MST [1]” worked out at 750 ± 310 nM; in “ITC”, 64000 ± 8000 nM; in the data set “MST [2]” it was 640 ± 170 nM; in “MST [3]” it was 1200 ± 200 nM.

B2: HdeA E37Q (natural protein, Escherichia coli, UniProt P0AES9 22-110, looked up)
chain: ADAQKAADNKKPVNSWTCEDFLAVDESFQPTAVGFAQALNNKDKPEDAVLDVQGIATVTPAIVQACTQDKQANFKDKVKGEWDKIKKDM
In the case of B2, the Kd was found to be 490 ± 100 nM in “MST [4]” and 550 ± 100 nM in the data set “MST [2]”.
